Experimental data reported in patent publication US20120128584A1 (ONCOTHERAPY SCIENCE, published 2012).

Target: T1, placental cadherin (P-cadherin; CDH3) (human, UniProt P22223 108-829)
T1 construct: Native CDH3 on the surface of the cancer cell lines H358 and KLM-1; also called native CDH3 protein; CDH3 antigen
Test: hybridoma screening on cancer cells carrying native CDH3
From the text: CDH3 gene encoded extracellular domain (SEQ ID NO: 3) was amplified from cDNA pool derived from cancer cells. The product was cloned into the pcDNA3.1 (Invitrogen, CA). To produce CDH3-specific antibody, mice were immunized subcutaneously with the domain expression vector (17.5 mcg/injection) every two weeks for a month. After the confirmation of the titer of antisera, spleenocytes were extracted from the mice and fused to myeloma cells to prepare hybridomas. We screened the hybridomas which can recognize native CDH3 antigen on the surface of the cancer cells. […] The hybridoma clone #6 was used to inject intraperitoneally into mice. The ascites was recovered after 2 to 3 weeks. Finally antibody was purified from the ascites using Protein A column (GE Healthcare, NJ).

T1 sequence (P22223 108-829 limits assumed): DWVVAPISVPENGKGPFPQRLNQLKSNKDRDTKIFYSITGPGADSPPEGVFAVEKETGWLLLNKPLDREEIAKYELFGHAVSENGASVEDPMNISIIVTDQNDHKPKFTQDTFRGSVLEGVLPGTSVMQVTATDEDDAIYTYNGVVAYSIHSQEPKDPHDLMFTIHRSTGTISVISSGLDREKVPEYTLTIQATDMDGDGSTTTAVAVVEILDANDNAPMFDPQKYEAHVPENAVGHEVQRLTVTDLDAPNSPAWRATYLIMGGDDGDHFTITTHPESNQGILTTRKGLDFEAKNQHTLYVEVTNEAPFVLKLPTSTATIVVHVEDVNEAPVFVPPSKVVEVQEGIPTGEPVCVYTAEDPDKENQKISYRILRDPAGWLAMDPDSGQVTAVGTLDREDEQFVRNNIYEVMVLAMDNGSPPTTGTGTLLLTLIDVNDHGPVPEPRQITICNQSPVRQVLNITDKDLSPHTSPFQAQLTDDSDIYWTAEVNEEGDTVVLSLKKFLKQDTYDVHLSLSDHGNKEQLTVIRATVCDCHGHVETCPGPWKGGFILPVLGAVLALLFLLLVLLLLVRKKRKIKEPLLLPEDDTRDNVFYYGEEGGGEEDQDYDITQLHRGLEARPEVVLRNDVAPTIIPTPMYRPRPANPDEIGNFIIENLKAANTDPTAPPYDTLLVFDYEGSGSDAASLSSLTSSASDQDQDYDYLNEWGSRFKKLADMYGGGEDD

B1: Anti-CDH3 mouse monoclonal antibody produced by hybridoma clone #6 (antibody, V domains shown)
VH: QVQLQQPGAELVKPGTSVKLSCKSSGYTFTSYWIHWVKQRPGHGLEWIGEIDPSDNYTYYNQNFKGKATLTIDKSSSTAYMQLNSLTSEDSAVFYCARSGYGNLFVYWGQGTLVTVSA
VL: QIVLTQSPAIMSSSPGEKVTMSCSATSSVTYMYWYQQKPGSSPKPWIFRTSNLASGVPTRFSGSGSGTSYSLTISSMEAEDAATYYCQHYHIYPRTFGGGTKL
notes: The VL as printed ends at 'TKL'
binding result: binds
